Measurements from paper PMC2424043, “Organelle-specific isoenzymes of plant V-ATPase as revealed by in vivo-FRET analysis” (BMC Cell Biology, 2008).
Like-named read-outs stand apart in the source and are kept apart here.

T1: VHA-c"1 (V-ATPase proteolipid subunit c", isoform 1) fused to CFP or YFP (A. thaliana, UniProt Q9SZY7 1-180)
T1 construct: VHA-c"1, A. thaliana, At4g32530, open reading frame without the stop codon; One molecule for the CFP and the YFP fusion; also called VHA-c"-CFP; VHA-c"-YFP; source: A. thaliana mesophyll protoplasts, transiently transfected, in living cells; not shown: CFP or YFP, C-terminal, kept
T1 sequence (looked up): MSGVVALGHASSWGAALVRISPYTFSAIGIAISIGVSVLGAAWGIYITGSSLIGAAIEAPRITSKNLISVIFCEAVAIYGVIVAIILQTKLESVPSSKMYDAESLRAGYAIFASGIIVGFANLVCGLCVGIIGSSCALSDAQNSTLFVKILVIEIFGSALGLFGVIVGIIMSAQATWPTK

B1: VHA-c3 (V-ATPase proteolipid subunit c, isoform 3) fused to CFP or YFP (natural protein, A. thaliana, UniProt P0DH93 1-164, looked up)
chain: MSTFSGDETAPFFGFLGAAAALVFSCMGAAYGTAKSGVGVASMGVMRPELVMKSIVPVVMAGVLGIYGLIIAVIISTGINPKAKSYYLFDGYAHLSSGLACGLAGLSAGMAIGIVGDAGVRANAQQPKLFVGMILILIFAEALALYGLIVGIILSSRAGQSRAE
notes: VHA-c3, A. thaliana, At4g38920, open reading frame without the stop codon; One molecule for the CFP and the YFP fusion; vectors 35S-CFP-NosT and 35S-YFP-NosT; List of constructs in Additional file 4; also called VHA-c-CFP; VHA-c-YFP; source: A. thaliana mesophyll protoplasts, transiently transfected, in living cells; not shown: CFP or YFP, C-terminal, kept

Experiments:
Experiment in all cases: FRET or BRET; in vivo FRET by sensitized acceptor emission (confocal laser scanning microscopy) in co-transfected A. thaliana mesophyll protoplasts; CFP fusion as donor, YFP fusion as acceptor; a FRET value of 8-10% is taken as background
[1] = target: VHA-a-YFP (Mesembryanthemum crystallinum V-ATPase subunit a fused to YFP) (Mesembryanthemum crystallinum)
[2] = target: VHA-a-YFP (Mesembryanthemum crystallinum V-ATPase subunit a fused to YFP) (Mesembryanthemum crystallinum); remark: listed apart in the source
[3] = target: B1; conditions: partners not purified
[4] = target: T1, VHA-c"1 (V-ATPase proteolipid subunit …); conditions: partners not purified
[5] = target: the molecule itself

| Molecule | FRET efficiency [1] | FRET efficiency [2] | FRET efficiency [3] | FRET efficiency [4] | FRET efficiency [5] |
| --- | --- | --- | --- | --- | --- |
| VHA-A-CFP (V-ATPase catalytic subunit A fused to CFP) (from UniProt O23654 1-623) (natural protein) | 44.8 | – | – | – | – |
| VHA-e1 (V-ATPase subunit e, isoform 1) fused to CFP or YFP (natural protein, A. thaliana, UniProt Q9FLN5 1-70, looked up, VHA-e1, A. thaliana, At5g55290, open reading frame without the stop codon; One molecule for the CFP and the YFP fusion; also called VHA-e isoform 1; AtVHA-e1; source: A. thaliana mesophyll protoplasts, transiently transfected, in living cells; not shown: CFP or YFP, C-terminal, kept) MGFLITTLIFVVVGIIASLCVRICCNRGPSTNLLHLTLVITATVCCWMMWAIVYIAQMNPLIVPILSETE | – | 20% | ~20% | – | – |
| VHA-e2 (V-ATPase subunit e, isoform 2) fused to CFP or YFP (natural protein, A. thaliana, UniProt Q9SZ13 1-70, looked up, VHA-e2, A. thaliana, At4g26710, open reading frame without the stop codon; One molecule for the CFP and the YFP fusion; also called VHA-e isoform 2; VHA-e2-CFP; source: A. thaliana mesophyll protoplasts, transiently transfected, in living cells; not shown: CFP or YFP, C-terminal, kept) MAFVVTSLIFAVVGIIASICTRICFNKGPSTNLLHLTLVITATVCCWMMWAIVYIAQMNPLIVPILSEVE | – | 20% | ~20% | 20% | – |
| VHA-c_(trunc) (third and fourth helices of VHA-c3) fused to CFP (domain or fragment, A. thaliana, UniProt P0DH93 80-164, looked up, VHA-c aa 80-164 (helices 3 and 4 of VHA-c3), A. thaliana; Intermediate construct of the hybrid in vector 35S-CFP-C; also called truncated VHA-c; truncated VHA-c-CFP; source: A. thaliana mesophyll protoplasts, transiently transfected, in living cells; not shown: CFP, C-terminal, kept) NPKAKSYYLFDGYAHLSSGLACGLAGLSAGMAIGIVGDAGVRANAQQPKLFVGMILILIFAEALALYGLIVGIILSSRAGQSRAE | – | 40.2% | 40.3% | 46.2% | – |
| B1 | – | – | – | – | 20.8% |
| VHA-c"_(trunc) (third and fourth helices of VHA-c"1) fused to CFP (domain or fragment, A. thaliana, UniProt Q9SZY7 88-180, looked up, VHA-c"1 aa 88-180 (helices 3 and 4), A. thaliana; Intermediate construct of the hybrid in vector 35S-CFP-C; fused to the C-terminus of the fluorescent protein; also called truncated VHA-c"; VHA-c"1_(trunc); source: A. thaliana mesophyll protoplasts, transiently transfected, in living cells; not shown: CFP, N-terminal, kept) QTKLESVPSSKMYDAESLRAGYAIFASGIIVGFANLVCGLCVGIIGSSCALSDAQNSTLFVKILVIEIFGSALGLFGVIVGIIMSAQATWPTK | – | – | – | 14.8% | – |
